Positions count from the first letter of the chain named.
How the values were obtained:
[1] = target: T1, rHuman CD44/Fc Chimera, CF (R&D Systems Cat#3660-CD) (human, UniProt P16070 21-220); experiment: MSD ECL titration, Fab 0.1 nM, blank 201
T1 construct: Bought Fc chimera; Fc part of the bought chimera not given

[2] = target: T2, rHuman P-Cadherin/Fc Chimera, CF (R&D Systems Cat#861-PC) (human, UniProt P22223 108-654); experiment: MSD ECL titration, Fab 0.1 nM, blank 201
T2 construct: Bought Fc chimera; Fc part of the bought chimera not given

[3] = target: T3, rHuman Erythropoietin R/Fc Chimera, CF (R&D Systems Cat#963-ER) (human, UniProt P19235 25-250); experiment: MSD ECL titration, Fab 0.1 nM, blank 201
T3 construct: Bought Fc chimera; also called EPO R/Fc; EPOR; Fc part of the bought chimera not given
T3 sequence: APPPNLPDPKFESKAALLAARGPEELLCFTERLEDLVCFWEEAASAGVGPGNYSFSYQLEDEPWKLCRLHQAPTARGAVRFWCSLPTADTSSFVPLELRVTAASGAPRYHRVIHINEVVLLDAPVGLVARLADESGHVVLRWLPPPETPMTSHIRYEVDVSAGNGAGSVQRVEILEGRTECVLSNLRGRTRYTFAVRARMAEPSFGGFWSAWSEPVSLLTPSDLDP

[4] = target: T4, rHuman IGF-1 sR (insulin-like growth factor-1 soluble receptor), CF (R&D Systems Cat#391-GR) (human, UniProt P08069 31-932); experiment: ECL (MSD multi-spot), antigen on plate, Fab 0.4 nM
T4 construct: Bought soluble receptor; also called IGF-R1

[5] = target: T5, rHuman P-Cadherin/Fc Chimera, CF (R&D Systems Cat#861-PC) (human, UniProt P22223 108-654); experiment: ECL (MSD multi-spot), antigen on plate, Fab 0.4 nM
T5 construct: Bought Fc chimera; also called CDH3; not shown: Fc of the bought chimera

[6] = target: T6, rHuman Erythropoietin R/Fc Chimera, CF (R&D Systems Cat#963-ER) (human, UniProt P19235 25-250); experiment: ECL (MSD multi-spot), antigen on plate, Fab 0.4 nM
T6 construct: Bought Fc chimera; also called EPO R/Fc; Epo R; not shown: Fc of the bought chimera
T6 sequence: T3 sequence

[7] = target: T7, Recombinant Human DLL4 (R&D Systems Cat#1506-D4/CF) (human, UniProt Q9NR61 27-524); experiment: ECL (MSD multi-spot), antigen on plate, Fab 0.4 nM
T7 construct: Bought recombinant protein; also called delta-like protein 4

[8] = target: T8, rHuman ErbB2/Fc Chimera, CF (R&D Systems Cat#1129-ER) (human, UniProt P04626 23-652); experiment: ECL (MSD multi-spot), antigen on plate, Fab 0.4 nM
T8 construct: Bought Fc chimera; also called HER2/neu; not shown: Fc of the bought chimera

[9] = target: T9, rHuman EGF R/Fc Chimera, CF (R&D Systems Cat#344-ER) (human, UniProt P00533 25-645); experiment: ECL (MSD multi-spot), antigen on plate, Fab 0.4 nM
T9 construct: Bought Fc chimera; also called ErbB-1; not shown: Fc of the bought chimera

[10] = target: T10, rHuman HGF R/c-MET/Fc Chimera, CF (R&D Systems Cat#358-MT/CF) (human, UniProt P08581 25-932); experiment: ECL (MSD multi-spot), antigen on plate, Fab 0.4 nM
T10 construct: Bought Fc chimera; also called HGF R/Fc; not shown: Fc of the bought chimera

[11] = target: T11, rHuman Notch-1/Fc Chimera, CF (R&D Systems Cat#3647-TK) (human, UniProt P46531 19-526); experiment: ECL (MSD multi-spot), antigen on plate, Fab 0.4 nM
T11 construct: Bought Fc chimera; not shown: Fc of the bought chimera

[12] = target: T12, rHuman CD44/Fc Chimera, CF (R&D Systems Cat#3660-CD) (human, UniProt P16070 21-220); experiment: ECL (MSD multi-spot), antigen on plate, Fab 0.4 nM
T12 construct: Bought Fc chimera; not shown: Fc of the bought chimera

[13] = target: T13, rHuman Erythropoietin R/Fc Chimera, CF (R&D Systems Cat#963-ER) (human, UniProt P19235 25-250); experiment: ECL (MSD Multi-Spot) binding assay, antigen spotted on plate; Fab 6 nM; blank spot 191
T13 construct: Bought Fc chimera; also called EPO R/Fc; Epo R; Fc part of the bought chimera not given
T13 sequence: T3 sequence

[14] = target: T14, Recombinant Human DLL4 (R&D Systems Cat#1506-D4/CF) (human, UniProt Q9NR61 27-524); experiment: as above
T14 construct: Bought recombinant protein; also called delta-like protein 4; rHuman DLL4

[15] = target: T15, rHuman ErbB2/Fc Chimera, CF (R&D Systems Cat#1129-ER) (human, UniProt P04626 23-652); experiment: as above
T15 construct: Bought Fc chimera; also called HER2/neu; human epidermal growth factor 2 receptor; Fc part of the bought chimera not given

[16] = target: T16, rHuman EGF R/Fc Chimera, CF (R&D Systems Cat#344-ER) (human, UniProt P00533 25-645); experiment: as above
T16 construct: Bought Fc chimera; also called epidermal growth factor receptor; Fc part of the bought chimera not given

[17] = target: T17, rHuman Notch-1/Fc Chimera, CF (R&D Systems Cat#3647-TK) (human, UniProt P46531 19-526); experiment: as above
T17 construct: Bought Fc chimera; Fc part of the bought chimera not given

[18] = target: T18, rHuman CD44/Fc Chimera, CF (R&D Systems Cat#3660-CD) (human, UniProt P16070 21-220); experiment: as above
T18 construct: Bought Fc chimera; Fc part of the bought chimera not given

[19] = target: T19, rHuman IGF-1 sR (IGF-1 sR), CF (R&D Systems Cat#391-GR) (human, UniProt P08069 31-932); experiment: as above
T19 construct: Bought soluble receptor; also called insulin-like growth factor-1 soluble receptor; IGF-R1
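Further: blank spot per well as comparator with Hit at signal to blank ratio of 4 or more.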

B1: Fab VH1-46_IGHD6-6*01_IGHJ1*01 & L6_IGKJ1*01 (Fab, V domains shown)
VH: QVQLVQSGAEVKKPGASVKVSCKASGYTFTSYYMHWVRQAPGQGLEWMGIINPSGGSTSYAQKFQGRVTMTRDTSTSTVYMELSSLRSEDTAVYYCAREEYSSSSAEYFQHWGQGTLVTVSS
VL: not shown
notes: Expressed in E. coli as Fab: heavy chain with CH1 plus Flag and His tags from Plasmid A, kappa light chain constant region from Plasmid C; also called Fab No. 1
ECL signal [1]: 323
ECL signal [2]: 235
ECL signal [3]: 373

B2: Fab VH1-46_IGHD6-6*01_IGHJ1*01_S102A_S103P_S104F & L6_IGKJ1*01_S31K (Fab, V domains shown)
VH: B1 VH with S102A, S103P, S104F
VL: EIVLTQSPATLSLSPGERATLSCRASQSVSKYLAWYQQKPGQAPRLLIYDASNRATGIPARFSGSGSGTDFTLTISSLEPEDFAVYYCQQRSNWPPWTFGQGTKVEIKR
notes: Fab
ECL signal [4]: 65 ECL signal
ECL signal [5]: 151 ECL signal
ECL signal [6]: 217 ECL signal
ECL signal [7]: 1260 ECL signal
ECL signal [8]: 159 ECL signal
ECL signal [9]: 175 ECL signal
ECL signal [10]: 119 ECL signal
ECL signal [11]: 197 ECL signal
ECL signal [12]: 190 ECL signal

B3: Fab VH5-51_IGHD5-18*01>3_IGHJ4*01 & V3-4_IGLJ1*01 (Fab, V domains shown)
VH: EVQLVQSGAEVKKPGESLKISCKGSGYSFTSYWIGWVRQMPGKGLEWMGIIYPGDSDTRYSPSFQGQVTISADKSISTAYLQWSSLKASDTAMYYCARRGYSYGYDYFDYWGQGTLVTVSS
VL: QTVVTQEPSFSVSPGGTVTLTCGLSSGSVSTSYYPSWYQQTPGQAPRTLIYSTNTRSSGVPDRFSGSILGNKAALTITGAQADDESDYYCVLYMGSGISYVFGTGTKVTVL
notes: Tested as a Fab made in E. coli; also called IGHV5-51*03
ECL signal [13]: 548
ECL signal [14]: 1950
ECL signal [15]: 873
ECL signal [16]: 742
ECL signal [17]: 464
ECL signal [18]: 547
ECL signal [19]: 854

Reference: US20120058906A1 (published 2012)
